According to patent publication US20240270821A1, “GIP/GLP1/GCG TRI-RECEPTOR AGONISTS AND USES THEREOF” (priority 2023, published 2024):

What was measured:
Experiment in all cases: cell-based or functional assay
[1] = target: T1, human GIP receptor (human) (UniProt P48546)
T1 sequence (looked up): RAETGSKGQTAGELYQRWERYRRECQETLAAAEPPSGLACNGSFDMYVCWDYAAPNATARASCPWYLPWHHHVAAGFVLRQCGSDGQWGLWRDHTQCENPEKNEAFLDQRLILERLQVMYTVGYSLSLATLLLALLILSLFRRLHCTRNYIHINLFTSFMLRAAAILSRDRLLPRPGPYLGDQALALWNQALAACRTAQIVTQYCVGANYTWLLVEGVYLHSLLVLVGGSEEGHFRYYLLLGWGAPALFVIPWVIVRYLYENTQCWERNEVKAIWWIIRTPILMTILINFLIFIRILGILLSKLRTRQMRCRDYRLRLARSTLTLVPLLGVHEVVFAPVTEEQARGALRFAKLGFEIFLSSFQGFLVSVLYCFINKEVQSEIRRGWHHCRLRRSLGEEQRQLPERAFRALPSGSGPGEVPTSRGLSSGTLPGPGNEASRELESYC

[2] = target: human glucagon receptor (human) (UniProt P47871)
Sequence of human glucagon receptor (human) (P47871 26-477): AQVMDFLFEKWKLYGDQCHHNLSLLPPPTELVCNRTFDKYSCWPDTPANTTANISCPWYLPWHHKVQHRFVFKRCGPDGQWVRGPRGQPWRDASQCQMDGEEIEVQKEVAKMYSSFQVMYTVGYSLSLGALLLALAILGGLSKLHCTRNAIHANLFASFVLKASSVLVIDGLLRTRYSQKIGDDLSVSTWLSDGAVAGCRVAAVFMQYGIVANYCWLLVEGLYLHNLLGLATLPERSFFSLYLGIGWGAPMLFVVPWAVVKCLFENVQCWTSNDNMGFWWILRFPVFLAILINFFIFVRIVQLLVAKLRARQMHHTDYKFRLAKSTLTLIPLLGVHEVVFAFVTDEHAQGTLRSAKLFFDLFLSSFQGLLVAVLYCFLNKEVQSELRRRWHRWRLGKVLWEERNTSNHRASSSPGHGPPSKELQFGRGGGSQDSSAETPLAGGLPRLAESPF

hGLP-1R = hGLP-1R (Homo sapiens, UniProt P43220)
Sequence of hGLP-1R (P43220 24-463): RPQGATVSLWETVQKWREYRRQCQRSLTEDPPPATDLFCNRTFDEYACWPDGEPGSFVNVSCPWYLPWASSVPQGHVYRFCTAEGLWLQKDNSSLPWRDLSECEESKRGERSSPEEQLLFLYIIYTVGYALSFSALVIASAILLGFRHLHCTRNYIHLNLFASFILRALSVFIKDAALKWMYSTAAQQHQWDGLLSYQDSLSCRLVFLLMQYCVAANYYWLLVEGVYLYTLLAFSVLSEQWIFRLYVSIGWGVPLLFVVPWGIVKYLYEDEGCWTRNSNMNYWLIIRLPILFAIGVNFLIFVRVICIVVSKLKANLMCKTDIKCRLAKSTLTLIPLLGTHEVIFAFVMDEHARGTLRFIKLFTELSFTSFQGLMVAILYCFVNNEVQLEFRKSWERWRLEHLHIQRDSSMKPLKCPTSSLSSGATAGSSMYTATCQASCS

B1: Example 197 (peptide)
chain: YXQGTFTSDFSXXLDKKAQXAFIEYLLEGGPSSGAPPPGGT
modifications: non-natural residues; lipidated Lys; synthetic construct; SITE 2: note = 2-Aminoisobutyric Acid; SITE 12: note = L-ornithine; SITE 13: note = alpha-methyl-leucine; SITE 17: note = Lysine is chemically modified through conjugation of the epsilon-amino group of the Lysine side chain with (2-[2-(2-Amino-ethoxy)-ethoxy]-acetyl)-(gamma-Glu)
[1]
  Relative cAMP EC50: 0.31 nM
  cAMP Rel EC50, nM (1% HSA): 44.1 nM
[2]
  Relative cAMP EC50: 3.23 nM
  cAMP Rel EC50, nM (1% HSA): 613 nM
hGLP-1R
  Relative cAMP EC50: 4.81 nM
  cAMP Rel EC50, nM (1% HSA): 440 nM

B2: Example 218 (peptide)
chain: YXQGTFTSDFSXXLDKKAQXAFIEYLIEXGESSGAPPPSGS
modifications: acylated Lys, C-terminal amide, non-natural residues; synthetic construct; SITE 2: note = 2-Aminoisobutyric Acid; SITE 12: note = L-ornithine; SITE 13: note = alpha-methyl-leucine; SITE 17: note = Lysine is chemically modified through conjugation of the epsilon-amino group of the Lysine side chain with (2-[2-(2-Amino-ethoxy)-ethoxy]-acetyl)-(gamma-Glu)
[1]
  Relative cAMP EC50: 0.0853 nM
[2]
  Relative cAMP EC50: 7.89 nM
hGLP-1R
  Relative cAMP EC50: 0.76 nM

B3: Example 194 (peptide)
chain: YXQGTFTSDFSXXLDKKAQXAFIEYLLEXGPSSGAPPPEGS
modifications: Aib, Orn, αMeL; acylated lysine; C-terminal amide; synthetic construct; SITE 2: note = 2-Aminoisobutyric Acid; SITE 12: note = L-ornithine; SITE 13: note = alpha-methyl-leucine; SITE 17: note = Lysine is chemically modified through conjugation of the epsilon-amino group of the Lysine side chain with (2-[2-(2-Amino-ethoxy)-ethoxy]-acetyl)2-(gamma-Glu)
[1]
  Relative cAMP EC50, nM (0.1% casein): 0.212 nM
  cAMP Rel EC50, nM (1% HSA): 19.7 nM
[2]
  Relative cAMP EC50, nM (0.1% casein): 4.32 nM
  cAMP Rel EC50, nM (1% HSA): 813 nM
hGLP-1R
  Relative cAMP EC50, nM (0.1% casein): 4.69 nM
  cAMP Rel EC50, nM (1% HSA): 697 nM

B4: Example 228 (peptide)
chain: YXQGTFTSDFSXXLDKKAQXAFIEYLIEXGESSGAPPPSGE
modifications: non-natural residues, acylated Lys, C-terminal amide; synthetic construct; SITE 2: note = 2-Aminoisobutyric Acid; SITE 12: note = L-ornithine; SITE 13: note = alpha-methyl-leucine; SITE 17: note = Lysine is chemically modified through conjugation of the epsilon-amino group of the Lysine side chain with (2-[2-(2-Amino-ethoxy)-ethoxy]-acetyl)-(gamma-Glu)
[1]
  Relative cAMP EC50: 0.147 nM
[2]
  Relative cAMP EC50: 1.38 nM
hGLP-1R
  Relative cAMP EC50: 1.52 nM

B5: Example 229 (peptide)
chain: YXQGTFTSDFSXXLDKKAQXAFIEYLIEXGESSGAPPPSGS
modifications: non-natural residues; lipidated Lys AEEA-γGlu-C18 diacid; C-term amide; synthetic construct; SITE 2: note = 2-Aminoisobutyric Acid; SITE 12: note = L-ornithine; SITE 13: note = alpha-methyl-leucine; SITE 17: note = Lysine is chemically modified through conjugation of the epsilon-amino group of the Lysine side chain with (2-[2-(2-Amino-ethoxy)-ethoxy]-acetyl)-(gamma-Glu)
[1]
  Relative cAMP EC50: 0.179 nM
[2]
  Relative cAMP EC50: 2.3 nM
hGLP-1R
  Relative cAMP EC50: 1.58 nM

B6: Example 153 (peptide)
chain: YXQGTFTSDFSXXLDKKAQXAFIEYLLAGGPSSGEPPPSGS
modifications: Aib, Orn, αMeL; acylated Lys (AEEA-γGlu2-C18 diacid); C-terminal amide; synthetic construct; SITE 2: note = 2-Aminoisobutyric Acid; SITE 12: note = L-ornithine; SITE 13: note = alpha-methyl-leucine; SITE 17: note = Lysine is chemically modified through conjugation of the epsilon-amino group of the Lysine side chain with (2-[2-(2-Amino-ethoxy)-ethoxy]-acetyl)-(gamma-Glu)
[1]
  Relative cAMP EC50, nM (0.1% casein): 0.218 nM
  cAMP Rel EC50, nM (1% HSA): 16.8 nM
[2]
  Relative cAMP EC50, nM (0.1% casein): 14.7 nM
  cAMP Rel EC50, nM (1% HSA): 1210 nM
hGLP-1R
  Relative cAMP EC50, nM (0.1% casein): 7.09 nM
  cAMP Rel EC50, nM (1% HSA): 488 nM

B7: Example 207 (peptide)
chain: YXQGTFTSDFSXXLDKKAQXAFIEYLLEAGHSSGAPPPSGE
modifications: Aib, Orn, αMeL, D-Ala; lysine acylated C18 diacid; amide; synthetic construct; SITE 2: note = 2-Aminoisobutyric Acid; SITE 12: note = L-ornithine; SITE 13: note = alpha-methyl-leucine; SITE 17: note = Lysine is chemically modified through conjugation of the epsilon-amino group of the Lysine side chain with (2-[2-(2-Amino-ethoxy)-ethoxy]-acetyl)-(gamma-Glu)
[1]
  Relative cAMP EC50: 0.321 nM
  cAMP Rel EC50, nM (1% HSA): 15.2 nM
[2]
  Relative cAMP EC50: 4.24 nM
  cAMP Rel EC50, nM (1% HSA): 770 nM
hGLP-1R
  Relative cAMP EC50: 4.36 nM
  cAMP Rel EC50, nM (1% HSA): 225 nM

B8: Example 213 (peptide)
chain: YXQGTFTSDFSXXLDKKAQXAFIEYLLEAGPSSGAPPPSGT
modifications: non-natural residues, AEEA-γGlu-C18 diacid acylation; synthetic construct; SITE 2: note = 2-Aminoisobutyric Acid; SITE 12: note = L-ornithine; SITE 13: note = alpha-methyl-leucine; SITE 17: note = Lysine is chemically modified through conjugation of the epsilon-amino group of the Lysine side chain with (2-[2-(2-Amino-ethoxy)-ethoxy]-acetyl)-(gamma-Glu)
[1]
  Relative cAMP EC50: 0.124 nM
[2]
  Relative cAMP EC50: 3.61 nM
hGLP-1R
  Relative cAMP EC50: 1.9 nM

B9: Example 170 (peptide)
chain: YXQGTFTSDFSXXLDKKAQXAFIEWLLEGGHSSGAPPPSGS
modifications: Lys acylated with AEEA-γGlu-C18 diacid; non-natural residues; C-amide; synthetic construct; SITE 2: note = 2-Aminoisobutyric Acid; SITE 12: note = L-ornithine; SITE 13: note = alpha-methyl-leucine; SITE 17: note = Lysine is chemically modified through conjugation of the epsilon-amino group of the Lysine side chain with (2-[2-(2-Amino-ethoxy)-ethoxy]-acetyl)-(gamma-Glu)
[1]
  Relative cAMP EC50, nM (0.1% casein): 0.401 nM
  cAMP Rel EC50, nM (1% HSA): 43.5 nM
[2]
  Relative cAMP EC50, nM (0.1% casein): 5.29 nM
  cAMP Rel EC50, nM (1% HSA): 1800 nM
hGLP-1R
  Relative cAMP EC50, nM (0.1% casein): 4.11 nM
  cAMP Rel EC50, nM (1% HSA): 361 nM

B10: Example 160 (peptide)
chain: YXQGTFTSDFSXXLDKKAQXAFIEYLLEGGPSSGAPPPEGT
modifications: Aib, Orn, αMeL, acylated Lys, amide; synthetic construct; SITE 2: note = 2-Aminoisobutyric Acid; SITE 12: note = L-ornithine; SITE 13: note = alpha-methyl-leucine; SITE 17: note = Lysine is chemically modified through conjugation of the epsilon-amino group of the Lysine side chain with (2-[2-(2-Amino-ethoxy)-ethoxy]-acetyl)-(gamma-Glu)
[1]
  Relative cAMP EC50, nM (0.1% casein): 0.354 nM
  cAMP Rel EC50, nM (1% HSA): 44.4 nM
[2]
  Relative cAMP EC50, nM (0.1% casein): 4.32 nM
  cAMP Rel EC50, nM (1% HSA): 479 nM
hGLP-1R
  Relative cAMP EC50, nM (0.1% casein): 5.39 nM
  cAMP Rel EC50, nM (1% HSA): 482 nM

B11: Example 215 (peptide)
chain: YXQGTFTSDFSKXLDKKAQXAFIEYLIEGGESSGAPPPSGS
modifications: Lys acylated with AEEA-γGlu-C18 diacid; non-natural residues; C-amide; synthetic construct; SITE 2: note = 2-Aminoisobutyric Acid; SITE 13: note = alpha-methyl-leucine; SITE 17: note = Lysine is chemically modified through conjugation of the epsilon-amino group of the Lysine side chain with (2-[2-(2-Amino-ethoxy)-ethoxy]-acetyl)-(gamma-Glu)-CO-(CH2) 16-CO2H; SITE 20: n
[1]
  Relative cAMP EC50: 0.418 nM
  cAMP Rel EC50, nM (1% HSA): 87.3 nM
[2]
  Relative cAMP EC50: 9.77 nM
  cAMP Rel EC50, nM (1% HSA): 1510 nM
hGLP-1R
  Relative cAMP EC50: 0.803 nM
  cAMP Rel EC50, nM (1% HSA): 162 nM

B12: Example 178 (peptide)
chain: YXQGTFTSDXSXXLDKKAQXAFIEYLLEXGPSSGAPPPSGS
modifications: Aib, F(4CN), Orn, αMeL; lipidated Lys; C-terminal amide; synthetic construct; SITE 2: note = 2-Aminoisobutyric Acid; SITE 10: note = 4-cyano-L-phenylalanine; SITE 12: note = L-ornithine; SITE 13: note = alpha-methyl-leucine; SITE 17: note = Lysine is chemically modified through conjugation of the epsilon-amino group of the Lysine side chain with (2-[2-(2-
[1]
  Relative cAMP EC50, nM (0.1% casein): 0.34 nM
[2]
  Relative cAMP EC50, nM (0.1% casein): 7.29 nM
hGLP-1R
  Relative cAMP EC50, nM (0.1% casein): 4.01 nM

B13: Example 190 (peptide)
chain: YXQGTFTSDXSXXLDKKAQXAFIEYLLEXGHSSGAPPPSGS
modifications: Aib, F(4CN), Orn, αMeL; lysine acylated C18 diacid; amide; synthetic construct; SITE 2: note = 2-Aminoisobutyric Acid; SITE 10: note = 4-cyano-L-phenylalanine; SITE 12: note = L-ornithine; SITE 13: note = alpha-methyl-leucine; SITE 17: note = Lysine is chemically modified through conjugation of the epsilon-amino group of the Lysine side chain with (2-[2-(2-
[1]
  Relative cAMP EC50, nM (0.1% casein): 0.306 nM
  cAMP Rel EC50, nM (1% HSA): 59.4 nM
[2]
  Relative cAMP EC50, nM (0.1% casein): 2.95 nM
  cAMP Rel EC50, nM (1% HSA): 331 nM
hGLP-1R
  Relative cAMP EC50, nM (0.1% casein): 1.41 nM
  cAMP Rel EC50, nM (1% HSA): 172 nM

B14: Example 206 (peptide)
chain: YXQGTFTSDFSXXLDKKAQXAFIEYLLEAGPSSGAPPPEGE
modifications: Aib, Orn, αMeL, D-Ala; AEEA-γGlu-C18 diacid acyl; amide; synthetic construct; SITE 2: note = 2-Aminoisobutyric Acid; SITE 12: note = L-ornithine; SITE 13: note = alpha-methyl-leucine; SITE 17: note = Lysine is chemically modified through conjugation of the epsilon-amino group of the Lysine side chain with (2-[2-(2-Amino-ethoxy)-ethoxy]-acetyl)-(gamma-Glu)
[1]
  Relative cAMP EC50: 0.224 nM
  cAMP Rel EC50, nM (1% HSA): 38.8 nM
[2]
  Relative cAMP EC50: 2.2 nM
  cAMP Rel EC50, nM (1% HSA): 545 nM
hGLP-1R
  Relative cAMP EC50: 2.77 nM
  cAMP Rel EC50, nM (1% HSA): 372 nM

B15: Example 180 (peptide)
chain: YXQGTFTSDFSXXLDKKAQXAFIEYLLEXGESSGAPPPSGT
modifications: Aib, Orn, αMeL, acylated K, C-terminal amide; synthetic construct; SITE 2: note = 2-Aminoisobutyric Acid; SITE 12: note = L-ornithine; SITE 13: note = alpha-methyl-leucine; SITE 17: note = Lysine is chemically modified through conjugation of the epsilon-amino group of the Lysine side chain with (2-[2-(2-Amino-ethoxy)-ethoxy]-acetyl)2-(gamma-Glu)
[1]
  Relative cAMP EC50, nM (0.1% casein): 0.14 nM
  cAMP Rel EC50, nM (1% HSA): 24 nM
[2]
  Relative cAMP EC50, nM (0.1% casein): 2.44 nM
  cAMP Rel EC50, nM (1% HSA): 1320 nM
hGLP-1R
  Relative cAMP EC50, nM (0.1% casein): 5.08 nM
  cAMP Rel EC50, nM (1% HSA): 891 nM
